# According to publication PMC4209800:
# Tests used:
# [1] = molecular target: human FcγRIIIa of allotype 158F, GPI-anchored (human) (UniProt P08637); test: flow cytometry on cells; IgG pre-complexed with equimolar goat F(ab')2 against its light chain (anti-κ for Fog-1, anti-λ for B2), on CHO cells expressing a single human FcγRII or FcγRIII; complexes detected with FITC anti-goat IgG; mean fluorescence of ≥12 000 cells
# [2] = molecular target: human FcγRIIIa of allotype 158V, GPI-anchored (human); test: as above
# Chain of UniProt P08637 (P08637 17-254): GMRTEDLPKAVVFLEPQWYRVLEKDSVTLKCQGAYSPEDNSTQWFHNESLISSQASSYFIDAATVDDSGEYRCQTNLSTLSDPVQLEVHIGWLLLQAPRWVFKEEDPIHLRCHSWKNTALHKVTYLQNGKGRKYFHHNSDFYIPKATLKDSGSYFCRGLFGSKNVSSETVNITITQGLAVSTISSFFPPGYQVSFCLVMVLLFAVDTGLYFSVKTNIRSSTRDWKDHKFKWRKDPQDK
substance,measurement,setting,value
B2 G1Δnab (antibody),fold lower binding than G1,[1],100 fold
same,fold lower binding than G1,[2],50 fold
